Measurements as given in patent US20070098693A1, “Methods for enhancing engraftment of purified hematopoietic stem cells in allogenic recipients” (priority 2003, published 2007).
Several values for one entry are separate records, joined by “and”; a condition that tells them apart may be missing. Identical values can stand only once.

What was measured:
CD8^+/TCR^− FC [1] = assay: Activation marker expression on sorted FC after 18 h culture (FACS); assay type: cell-based, mice; conditions: FC from 10 day FL-cultured BMC, overnight culture, medium
Description: (§1) mAbs and Flow cytometry. The following mAbs (all from BD Biosciences Pharmingen, San Diego, Calif., except those labeled with APC-cy-7 from eBioscience, San Diego, Calif.) were used. To sort CD8^+/TCR^− FC: anti-CD8α (53-6.7) PE-labeled, anti-TCR β chain (H57-597) and anti-TCR γδ chain (GL3) FITC-labeled. To sort B220^+/CD11c^dim/CD11b^− p-preDC: anti-CD11b (M1/70) APC-labeled, anti-CD45R/B220 (RA3-6B2) APC-Cy7-labeled, anti-CD11c (HL3) PE-labeled, and anti-TCR β chain (H57-597), anti-TCR γδ chain (GL3), anti-CD14 (rmC5-3), anti-CD19 (1D3), anti-Pan-NK cells (DX5), and anti-NK1.1 (PK136), all FITC-labeled. To sort HSC: anti-TCR β chain (H57-597), anti-TCR γδ chain (GL3), anti-Ly-6G (Gr-1), anti-CD11b, Mac1 (M1/70), anti-CD8α (53-6.7) and anti-CD45R/B220 (RA3-6B2), all FITC-labeled, anti-Ly-6A/E (Sca-1) (E13-161.7) PE-labeled and anti-c-Kit (CD117) (2B8) APC-labeled. To restain the sorted FC population: purified anti-CD16/CD32 (FcγIII/II receptors) (2.4G2), anti-CD11c (HL3), anti-CD4 (RM4-5) and anti-CD19 (1D3) all APC-labeled, anti-CD45R/B220 (RA3-6B2) PerCP-labeled, and anti-Pan-NK cells (DX5), anti-NK1.1 (PK136), anti-CD14 (rmC5-3), and anti-Ly-6G (Gr-1) FITC-labeled. To analyze the activation state: anti-CD80 (B7-1) ([…]), anti-CD86 (B7-2) ([…]), and anti-I-A^b (Aβ^b) (AF6-120.1) FITC-labeled. For PBL typing and multilineage chimerism: anti-H-2 K^b (AF6-88.5) PE or FITC-labeled, anti-H-2K^k (36-7-5) PE or FITC-labeled, anti-TCR β chain (H57-597), anti-NK1.1 (PK136), anti-Ly-6G (Gr-1), anti-CD11b, Mac1 (M1/70) and anti-CD45R/B220 (RA3-6B2) all FITC-labeled. Detection of dead cells after cell culture was determined by using a 7-Amino-actinomycin D (7-AAD) (Molecular Probes, Eugene, Oreg.) followed by FACS analysis.
(§2) CpG oligodeoxynucleotides (ODN) stimulation. Sorted p-preDC or FC were cultured for 18 hours at 10^5 cells/200 μL in 96 well round-bottom culture plates in culture medium in the presence or absence of Toll-like receptor (TLR)-9 ligand, CPG-ODN 1668 (TCCATGACGTTCCGATGCT) (SEQ ID NO. 1) (GibcoBRL Custom Primers) at 1 μM, TLR-4 ligand, LPS from Escherichia coli (Sigma, MO, USA) at 10 μg/ml, as previously described^30. CpG or LPS-treated or untreated cells were subsequently assayed for: 1) the expression of DC activation/maturation cell surface markers by FACS, 2) their survival rate by 7AAD staining, or 3) morphological appearance by Wright Giemsa staining on cytospins. The supernatant of these cultures were collected for analysis of the production of different cytokines by ELISA.

FC population in PB = assay: Flt3-ligand treatment of mice, subtypes in the mobilized FC population in PB; assay type: in vivo, B10.BR mice
Method: Flt3-ligand treatment of mice. Recombinant human Flt-3 Ligand (FL, kindly provided by Amgen, Seattle, Wash.) was diluted in sterile, filtered, endotoxin-free water at a concentration of 100 μg/ml. Donor B10.BR mice were subcutaneously injected with 10 μg of FL daily for 10 days. B10.BR control mice were injected with saline only. At the end of the treatment, peripheral blood was harvested and collected into heparinized tubes.
Phenotypic analysis of sorted FC. Sorted FC isolated from fresh BMC or FL-mobilized peripheral blood, with a purity ranging from 94 to 98%, were incubated with Fc receptor block (anti-CD16/CD32) before staining with different lineage specific markers, including anti-CD4, CD11c, B220, NK1.1, DX5, CD14, Gr1, and CD19. During reanalysis of sorted FC, less than 1% of contaminating T cells (TCRαβ FITC and TCRγδFITC) were detected, which therefore allowed the use of FITC-conjugated specific markers for further analysis. To validate the specificity of staining, various conjugates of the same antibody were used, including CD11c, CD4 and CD19 conjugated to FITC and APC, as well as B220 conjugated with PerCP, APC, or FITC (not shown). To analyze the subtypes of DC in the sorted FC population, sorted FC were blocked and stained with CD11b FITC, CD11c APC and B220 PerCP mAbs to determine the presence of myeloid pre-DC (CD11c^+/B220^−/CD11b^+), p-preDC (CD11c^dim/B220^+/CD11b^−), the common precursor population for DC (CD11c^+/B220^+/CD11b^+) or mature lymphoid DC (CD8α^+/CD11c^+/CD11b^−/B220^−). The cells were washed twice in CSM, and analyzed on a FACS Calibur using Cell Quest Software (Becton Dickinson, Mountainview, Calif.).

CD8^+/TCR^− FC [2] = assay: Cell death of sorted FC after overnight culture (7AAD staining); assay type: cell-based, mice; conditions: FC from 10 day FL-cultured BM, medium, n=3; versus 53.6% fresh cells
Description: as §1, §2

CD8^+/TCR^− FC [3] = assay: CpG ODN / LPS stimulation of sorted FC, cytokine production by ELISA / multiplex; assay type: cell-based, mice; conditions: FC from 10 day FL-cultured BM, overnight culture, medium
Method: as §2
Cytokine production by ELISA. Briefly, the cell-free supernatants of 12H, 18H, or 24H cultured cells (FC or p-preDC,) with or without CpG ODN or LPS were collected and kept frozen at −80° C. The amount of cytokine produced was determined by 1) ELISA kits for mouse IFN-α (R&D system) and mouse TNF-α (Biosource International), and 2). Multiplex for MIP 1αCCL3), GM-CSF, MCP-1 (CCL2), RANTES (CCL5), IFN-γ, IL-1β, IL-2, IL-4, IL-5, IL-6, IL-10, IL-12p70, IL-9, and IL13 on 18 hour incubation supernatants from three different experiments performed by Linco Diagnostic Services (St. Charles, Mo.).

FL-derived p-preDC = assay: Cytokine production by sorted FL-derived p-preDC (ELISA); assay type: cell-based, mice; conditions: p-preDC from FL bone marrow culture, overnight culture
Method: (§3) Culture of BMC with FL. BMC were resuspended at 10^6 cells/ml in culture medium consisting of RPMI 1640 (Gibco), 10% FBS (Gibco), 1 mM Sodium pyruvate (Gibco), 10 mM Hepes (Gibco), 2 mM L-Glutamine (Gibco), Penicillin 100 U/mL, 100 μg/mL Streptomycin, (Gibco), and 10^−5 M 2-mercaptoethanol (Sigma), supplemented with human FL (100 ng/ml, generous gift from Amgen, Seattle, Wash.). Every 5 days of culture, half of the medium was replaced by fresh cytokine-supplemented culture medium according to a protocol previously described^30.
as §2, with “The supernatant of these cultures were collected for analysis of the production of different cytokines by ELISA.” left out
Cytokine production by ELISA. […] The amount of cytokine produced was determined by 1) ELISA kits for mouse IFN-α (R&D system) and mouse TNF-α (Biosource International), and 2). […]

[4] = test system: B220^+/CD11c^dim/CD11b^− p-preDC; assay: Cell death of sorted p-preDC after overnight culture (7AAD staining); assay type: cell-based, mice; conditions: versus fresh cells (data not shown)
Description: as §1
CpG oligodeoxynucleotides (ODN) stimulation. […]

[5] = test system: B220^+/CD11c^dim/CD11b^− p-preDC; assay: Activation marker expression on sorted p-preDC after 18 h culture (FACS); assay type: cell-based, mice; conditions: p-preDC from 10 day FL-cultured BMC versus fresh p-preDC
Description: as §1, §2

p-preDC from cultured BM = assay: Culture of BMC with FL for 10 days, expansion of p-preDC; assay type: cell-based, mice; conditions: 10 days in culture with FL, n=4
Method: as §3
(§4) Cell sorting. HSC, FC, and p-preDC were sorted as previously described^9,30,49. HSC were sorted for Sca-1^+c-Kit^+Lin^− expression, FC were sorted for CD8α^+/TCRαβ^−/TCRγδ^− expression, and p-preDC were sorted for CD11c^dim/CD11b^−/B220^+ expression. Briefly, BMC were incubated with Abs on ice for 30 minutes, cells were washed twice in the CSM, filtered, and resuspended to a final concentration of 2.5×10^6 cells/mL in the CSM for cell sorting. The isolation of the cell populations was performed on FACSVantage Flow Cytometers (Becton Dickinson). The populations of interest were isolated from the live lymphoid gate, and after reanalysis, only cells with a purity of >94% were used.

FC from cultured BM = assay: Culture of BMC with FL for 10 days, expansion of FC; assay type: cell-based, mice; conditions: 10 days in culture with FL, n=8
Method: as §3, §4

[6] = mice treated with FL for 10 days (data not shown)
[7] = mice treated with FL for 10 days, sorted FC from PB

B1: FL: Recombinant human Flt-3 Ligand (FL, kindly provided by Amgen, Seattle, Wash.) (protein, UniProt P49771 27-235, looked up)
Fms-related tyrosine kinase 3 …: TQDCSFQHSPISSDFAVKIRELSDYLLQDYPVTVASNLQDEELCGGLWRLVLAQRWMERLKTVAGSKMQGLLERVNTEIHFVTKCAFQPPPSCLRFVQTNISRLLQETSEQLVALKPWITRQNFSRCLELQCQPDSSTLPPPWSPRPLEATAPTAPQPPLLLLLLLPVGLLLLAAAWCLHWQRTRRRTPRPGEQVPPVPSPQDLLLVEH
CD8^+/TCR^− FC [1]; versus 11% of fresh FC
  CD80 expression on FL-derived FC: 47%
CD8^+/TCR^− FC [1]; versus 17% of fresh FC
  CD86 expression on FL-derived FC: 51%
CD8^+/TCR^− FC [1]; versus 18% of fresh FC
  Class II expression on FL-derived FC: 40%
FC population in PB; FL-treatment of mice
  expansion of FC in PB: significantly expands
FC population in PB; [6]
  FL-FC in the PB expressing CD14: none
  FL-FC in the PB expressing CD19: none
FC population in PB; [7]
  CD11c^bright population (mature DC) in FL-FC: 20%
  CD11c^dim population (p-preDC phenotype) in FL-FC: 60% and 60-65%
  FL-FC in the PB expressing CD11c: 85-90%
  FL-FC in the PB expressing NK1.1: 5-7%
CD8^+/TCR^− FC [2]
  death of FL-derived FC after overnight culture: 71%
CD8^+/TCR^− FC [3]
  IFN-α production by FL-derived FC: significant amounts of IFN-α
FL-derived p-preDC
  IFN-α production by FL-derived p-preDC: also produced IFN-α
[4]
  death of FL-derived p-preDC after overnight culture: more sensitive to death
[5]
  CD80 level on FL-derived p-preDC: upregulated
  CD86 level on FL-derived p-preDC: upregulated
  Class II level on FL-derived p-preDC: upregulated
p-preDC from cultured BM
  increase in FL-p-preDC from cultured BM: 17 fold
FC from cultured BM
  increase in FL-derived FC from cultured BM: 7 fold
